The results in this text go back to patent US20220025071A1.

“And” between values parts separate entries of the source, which are not always exact repeats. Equal values may be shown once.

Assay [1] deals with SARS-CoV-2 spike protein, South African Δ3 B.1.351 variant (pseudovirus RVP-724) (SARS-CoV-2) (UniProt P0DTC2). The assay can be described thus: cell-based or functional assay.
The target in assay [2] is SARS-CoV-2 spike protein, N439K variant (pseudovirus RVP-703) (SARS-CoV-2) (UniProt P0DTC2). The assay can be described thus: cell-based or functional assay.

With “REGN10987 (Imdevimab, biosimilar version) (antibody)”, the EC50 (pM) Neutralization, South Africa B.1.351 in assay [1] was 2.48 pM and 2.37 pM. In addition, in assay [2], the EC50 (pM) Neutralization, N439K is 2260 pM and 2220 pM; the fold less potent than REGN10933 in pseudovirus neutralization came out at 1000 fold.
